{
  "source": "paper PMC3941051",
  "biological_target": "His-FLAG-Arp5 (not stated (human or rat cDNA cloned)) (UniProt Q9H9F9)",
  "sequence (Q9H9F9 whole entry, the tested form may be a part)": "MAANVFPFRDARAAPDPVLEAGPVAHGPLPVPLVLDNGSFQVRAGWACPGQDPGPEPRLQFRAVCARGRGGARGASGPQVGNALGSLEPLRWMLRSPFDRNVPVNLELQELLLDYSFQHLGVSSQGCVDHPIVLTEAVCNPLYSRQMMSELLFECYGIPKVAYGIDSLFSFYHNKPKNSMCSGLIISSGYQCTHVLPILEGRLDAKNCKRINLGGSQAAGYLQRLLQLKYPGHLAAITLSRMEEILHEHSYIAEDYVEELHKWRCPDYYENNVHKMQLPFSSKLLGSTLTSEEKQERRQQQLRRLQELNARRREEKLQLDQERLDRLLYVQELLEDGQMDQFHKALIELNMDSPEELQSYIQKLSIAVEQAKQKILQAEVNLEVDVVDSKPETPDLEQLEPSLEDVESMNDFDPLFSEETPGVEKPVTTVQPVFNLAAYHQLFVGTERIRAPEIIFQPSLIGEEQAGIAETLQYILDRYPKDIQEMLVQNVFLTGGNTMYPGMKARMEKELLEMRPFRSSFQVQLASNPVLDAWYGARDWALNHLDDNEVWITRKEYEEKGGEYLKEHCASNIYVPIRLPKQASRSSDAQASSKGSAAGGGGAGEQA",
  "test": "cross-linking",
  "data": [
    {"substance": "GFP-fused 32-amino acid Myocd RPEL1 motif peptide (RPEL1-GFP)", "values": [
      {"measurement": "stoichiometry N", "result": 1}
    ]}
  ]
}
